Consider two molecules from patent US20050287542, “Protein binding miniature proteins” (published 2005).

Data set [1] has as its target T1, G56 (GCN4 bZIP element) (UniProt P03069 P03069:226-281). The experiment in a line: EMSA. The settings on record: chain copies: 2 inferred; label: 32P. In general terms: In EMSA bound probe runs differently from free probe, usually more slowly.
In data set [2] the target is T1, G56 (GCN4 bZIP element). Nature of the data set: EMSA; ddG -2.6 kcal/mol. The settings on record: chain copies: 2 inferred; label: 32P.

T1 sequence (P03069 226-281, one chain of several): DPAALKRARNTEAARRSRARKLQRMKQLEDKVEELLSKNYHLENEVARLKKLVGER

B1: CRE24 (dsDNA)
DNA 1: AGTGGAGATGACGTCATCTCGTGC
DNA 2: GCACGAGATGACGTCATCTCCACT
In the case of B1, the binding signal in data set [1] is 118 fold preference over CEBP24.

B2: CEBP24 (C/EBP24) (dsDNA)
DNA 1: AGTGGAGATTGCGCAATCTCGTGC
DNA 2: GCACGAGATTGCGCAATCTCCACT
Turning to B2, in data set [2], the binding signal was 118 fold specificity ratio for CRE24 over CEBP24.
